The target of series [1] is T1, Ac-YVAD-AMC (model substrate, from Enzo, Inc.).
T1 chain: YVAD

Series [2] deals with alpha-synuclein (wild-type, full-length human α-synuclein).

B1: caspase-1 (ICE), purified, activated (protein)
chain: NPAMPTSSGSEGNVKLCSLEEAQRIWKQKSAEIYPIMDKSSRTRLALIICNEEFDSIPRRTGAEVDITGMTMLLQNLGYSVDVKKNLTASDMTTELEAFAHRPEHKTSDSTFLVFMSHGIREGICGKKHSEQVPDILQLNAIFNMLNTKNCPSLKDKPKVIIIQACRGDSPGVVWFKDSVGVSGNLSLPTTEEFEDDAIKKAHIEKDFIAFCSSTPDNVSWRHPTMGSVFIGRLIEHMQEYACSCDVEEIFRKVRFSFEQPDGRAQMPTTERVTLTRCFYLFPGH
With B1, the “activity against a model substrate” value in series [1] was found to be 110 µM/min/mg. Further, the “cleavage of alpha-synuclein in vitro (SDS-PAGE and western blotting with anti-synuclein antibody)” value in series [2] is “Purified, activated caspase-1 does indeed cleave alpha-synuclein”.

For the origin of these results see US20140309172.
